IntAct's records for PubMed 29039417

B1: Protein PTHB1 (Homo sapiens), Q3SYG4 (parent)
chain: MSLFKARDWWSTILGDKEEFDQGCLCLANVDNSGNGQDKIIVGSFMGYLRIFSPHPAKTGDGAQAEDLLLEVDLRDPVLQVEVGKFVSGTEMLHLAVLHSRKLCVYSVSGTLGNVEHGNQCQMKLMYEHNLQRTACNMTYGSFGGVKGRDLICIQSMDGMLMVFEQESYAFGRFLPGFLLPGPLAYSSRTDSFLTVSSCQQVESYKYQVLAFATDADKRQETEQQKLGSGKRLVVDWTLNIGEQALDICIVSFNQSASSVFVLGERNFFCLKDNGQIRFMKKLDWSPSCFLPYCSVSEGTINTLIGNHNNMLHIYQDVTLKWATQLPHIPVAVRVGCLHDLKGVIVTLSDDGHLQCSYLGTDPSLFQAPNVQSRELNYDELDVEMKELQKIIKDVNKSQGVWPMTEREDDLNVSVVVSPNFDSVSQATDVEVGTDLVPSVTVKVTLQNRVILQKAKLSVYVQPPLELTCDQFTFEFMTPDLTRTVSFSVYLKRSYTPSELEGNAVVSYSRPTDRNPDGIPRVIQCKFRLPLKLICLPGQPSKTASHKITIDTNKSPVSLLSLFPGFASQSDDDQVNVMGFHFLGGARITVLASKTSQRYRIQSEQFEDLWLITNELILRLQEYFEKQGVKDFACSFSGSIPLQEYFELIDHHFELRINGEKLEELLSERAVQFRAIQRRLLARFKDKTPAPLQHLDTLLDGTYKQVIALADAVEENQGNLFQSFTRLKSATHLVILLIALWQKLSADQVAILEAAFLPLQEDTQELGWEETVDAAISHLLKTCLSKSSKEQALNLNSQLNIPKDTSQLKKHITLLCDRLSKGGRLCLSTDAAAPQTMVMPGGCTTIPESDLEERSVEQDSTELFTNHRHLTAETPRPEVSPLQGVSE
partner: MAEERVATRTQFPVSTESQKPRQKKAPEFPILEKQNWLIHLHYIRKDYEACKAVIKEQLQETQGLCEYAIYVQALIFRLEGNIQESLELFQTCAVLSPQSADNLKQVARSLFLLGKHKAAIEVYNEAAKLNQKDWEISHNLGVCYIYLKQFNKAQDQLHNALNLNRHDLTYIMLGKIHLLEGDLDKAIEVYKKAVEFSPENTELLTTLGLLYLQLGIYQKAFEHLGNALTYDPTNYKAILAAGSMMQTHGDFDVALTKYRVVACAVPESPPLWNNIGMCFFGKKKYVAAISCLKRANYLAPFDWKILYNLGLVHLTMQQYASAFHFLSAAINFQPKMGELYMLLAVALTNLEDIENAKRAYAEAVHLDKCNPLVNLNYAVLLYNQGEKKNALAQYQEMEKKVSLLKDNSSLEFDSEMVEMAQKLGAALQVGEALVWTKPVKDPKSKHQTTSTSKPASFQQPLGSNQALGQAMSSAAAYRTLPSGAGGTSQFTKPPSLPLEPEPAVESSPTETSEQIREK

Variants of: B1
Conditions: with bbs4_human BBS4, Q96RK4

Row | Variant | effect of a mutation on the interaction
1 | E663K | with no effect
2 | E663A | with no effect
3 | E668A | with no effect
4 | D700E | with no effect
5 | I707A | with no effect
6 | I707K | with no effect
7 | T688A | with no effect
8 | D696K | with no effect
9 | D696A | with no effect
10 | G701E | disrupting interaction strength
11 | G701K | with no effect
12 | G701A | with no effect
13 | L699E | with no effect
14 | L699A | with no effect
15 | L699K | disrupting interaction strength
16 | R678K | disrupting interaction strength
17 | R678E | with no effect
18 | R678A | with no effect
19 | R678G | disrupting interaction strength
20 | L681K | with no effect
21 | I676A | with no effect
22 | I676K | with no effect

Row | Variant | effect of a mutation on the interaction
23 | I676E | with no effect
24 | L695E | with no effect
25 | L695A | with no effect
26 | L695M | disrupting interaction strength
27 | L695K | with no effect
28 | P691K | with no effect
29 | P691E | with no effect
30 | V671E | with no effect
31 | V671R | disrupting interaction strength
32 | V671A | with no effect
33 | V671K | with no effect
34 | D711E | with no effect
35 | D711K | with no effect
36 | D711A | with no effect
37 | A708K | with no effect
38 | R683K | with no effect
39 | R683A | with no effect
40 | K687A | with no effect
41 | K704E | with no effect
42 | K704A | with no effect
43 | P689A | with no effect
44 | P689K | with no effect

Row | Variant | effect of a mutation on the interaction
45 | P689E | with no effect
46 | L665R | disrupting interaction strength
47 | L665K | with no effect
48 | L665F | disrupting interaction strength
49 | A710E | with no effect
50 | A710K | with no effect
51 | R669A | with no effect
52 | S667A | with no effect
53 | S667K | with no effect
54 | T702C | disrupting interaction strength
55 | T702E | with no effect
56 | T702R | disrupting interaction strength
57 | R674E | with no effect
58 | R674K | with no effect
59 | R674P | disrupting interaction strength
60 | R674A | disrupting interaction strength
61 | A670K | with no effect
62 | T697K | with no effect
63 | T697A | with no effect
64 | Q677E | with no effect
65 | Q677A | with no effect
66 | E664A | with no effect

Row | Variant | effect of a mutation on the interaction
67 | E664K | with no effect
68 | L666E | disrupting interaction strength
69 | L666A | with no effect
70 | D686A | with no effect
71 | D686K | with no effect
72 | V706A | with no effect
73 | H694E | disrupting interaction strength
74 | H694A | with no effect
75 | H694K | with no effect
76 | Q672K | with no effect
77 | Q672E | with no effect
78 | F673K | with no effect
79 | F673E | with no effect
80 | F673A | with no effect
81 | L698A | with no effect
82 | L698K | with no effect
83 | L698S | disrupting interaction strength
84 | L692E | with no effect
85 | L692A | disrupting interaction strength
86 | L680A | with no effect
87 | L680E | with no effect
88 | L680K | with no effect

Row | Variant | effect of a mutation on the interaction
89 | R679K | with no effect
90 | R679L | disrupting interaction strength
91 | R679W | disrupting interaction strength
92 | A675E | with no effect
93 | A675H | disrupting interaction strength
94 | V713A | with no effect
95 | V713K | with no effect
96 | A690V | disrupting interaction strength
97 | A690E | with no effect
98 | A690K | disrupting interaction strength
99 | Y703H | disrupting interaction strength
100 | Y703K | with no effect
101 | A682K | with no effect
102 | L709E | with no effect
103 | L709K | with no effect
104 | L662E | with no effect
105 | L662K | with no effect
106 | F684E | with no effect
107 | F684A | with no effect
108 | Q705A | with no effect
109 | Q705E | with no effect
110 | Q705K | with no effect

Now from value to variant:

Row | effect of a mutation on the interaction | Variant
111 | with no effect | Q693E
112 | disrupting interaction strength | Q693A
113 | with no effect | Q693K
114 | with no effect | E668K
115 | with no effect | D700K
116 | with no effect | D700A
117 | with no effect | I707E
118 | with no effect | T688K
119 | with no effect | T688E
120 | with no effect | D696E
121 | disrupting interaction strength | D696N
122 | disrupting interaction strength | D696V
123 | with no effect | K685A
124 | disrupting interaction strength | K685E
125 | disrupting interaction strength | R678H
126 | with no effect | L681E
127 | with no effect | L681A
128 | with no effect | P691A
129 | disrupting interaction strength | P691S
130 | disrupting interaction strength | P691L

Row | effect of a mutation on the interaction | Variant
131 | disrupting interaction strength | V671I
132 | with no effect | A708E
133 | with no effect | R683E
134 | with no effect | K687E
135 | with no effect | L665E
136 | with no effect | L665A
137 | with no effect | R669E
138 | with no effect | R669K
139 | with no effect | S667E
140 | with no effect | T702A
141 | with no effect | T702K
142 | disrupting interaction strength | R674W
143 | disrupting interaction strength | R674Q
144 | with no effect | A670E
145 | with no effect | T697E
146 | disrupting interaction strength | T697C
147 | disrupting interaction strength | Q677Y
148 | with no effect | Q677K
149 | with no effect | L666K
150 | with no effect | D686E

Row | effect of a mutation on the interaction | Variant
151 | with no effect | V706K
152 | with no effect | V706E
153 | disrupting interaction strength | H694Y
154 | with no effect | Q672A
155 | disrupting interaction strength | L698E
156 | with no effect | L692K
157 | with no effect | R679E
158 | with no effect | R679A
159 | with no effect | A675K
160 | with no effect | V713E
161 | with no effect | A712E
162 | with no effect | A712K
163 | with no effect | Y703A
164 | with no effect | Y703E
165 | with no effect | A682E
166 | with no effect | L709A
167 | with no effect | F684K
168 | disrupting interaction strength | Q705M
